Measured values reported in US20200199241A1 (Chugai, published 2020).
Residue numbers refer to the chain shown, from its start. Names may count otherwise.

T1: FcγRIIb (human, UniProt P31994 43-217, limits assumed)
T1 construct: also called FcγIIB; CD32
T1 sequence: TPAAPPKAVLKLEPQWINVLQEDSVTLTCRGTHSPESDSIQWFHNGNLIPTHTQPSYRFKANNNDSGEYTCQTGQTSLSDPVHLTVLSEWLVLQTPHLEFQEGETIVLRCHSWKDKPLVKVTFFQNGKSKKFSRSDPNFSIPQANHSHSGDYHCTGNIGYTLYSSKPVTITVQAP

T2: FcγRIIa type R (human, UniProt P12318 36-217)
T2 construct: also called FcγRIIaR; FcγRIIa(R)
T2 chain: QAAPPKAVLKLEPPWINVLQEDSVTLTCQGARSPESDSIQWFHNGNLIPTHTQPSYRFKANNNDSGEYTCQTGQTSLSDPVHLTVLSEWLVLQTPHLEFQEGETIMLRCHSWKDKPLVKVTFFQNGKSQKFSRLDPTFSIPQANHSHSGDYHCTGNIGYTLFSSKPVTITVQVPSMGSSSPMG

T3: FcγRIIa type H (human, UniProt P12318 36-217)
T3 construct: also called FcγRIIaH; FcγRIIa(H)
T3 sequence: T2 chain with R133H

T4: human FcγRIIb (human, UniProt P31994 43-217, limits assumed)
T4 construct: also called FcγIIB
T4 sequence: T1 sequence

T5: human FcγRIIa type H (human, UniProt P12318 36-217)
T5 construct: also called FcγRIIaH; FcγRIIa(H)
T5 sequence: T2 chain with R133H

T6: human FcγRIIa type R (human, UniProt P12318 36-217)
T6 construct: also called FcγRIIaR; FcγRIIa(R)
T6 chain: T2 chain

B1: IL6R-BP198/IL6R-L (antibody, human IgG1)
heavy: QVQLQESGPGLVKPSETLSLTCAVSGHSISHDHAWSWVRQPPGEGLEWIGFISYSGITNYNPSLQGRVTISRDNSKNTLYLQMNSLRAEDTAVYYCARSLARTTAMDYWGEGTLVTVSSASTKGPSVFPLAPSSKSTSGGTAALGCLVKDYFPEPVTVSWNSGALTSGVHTFPAVLQSSGLYSLSSVVTVPSSSLGTQTYICNVNHKPSNTKVDKKVEPKSCDKTHTCPPCPAPDYLGGDSVFLFPPKPKDTLMISRTPEVTCVVVDVSDEDGEVKFNWYVDGVEVHNAKTKPREEQYNSTYRVVSVLTVLHQDWLNGKEYKCKVSNAALPKPIEKTISKAKGQPREPQVYTLPPSRDELTKNQVSLTCLVKGFYPSDIAVEWESNGQPENNYKTTPPVLDSDGSFFLYSKLTVDKSRWQQGNVFSCSVMHEALHNHYTQESLSLSP
light: DIQMTQSPSSLSASVGDRVTITCRASQDISSYLNWYQQKPGKAPKLLIYYTSRLHSGVPSRFSGSGSGTDFTFTISSLQPEDIATYYCQQGNTLPYTFGQGTKVEIK
notes: Anti-IL-6R human IgG1 variant; copies: 2 + 2
B2: IL6R-BP207/IL6R-L (antibody, human IgG1)
heavy: B1 heavy with Y236L, D270H, G273P, A328K, K332R
light: B1 light
notes: as for B1
B3: IL6R-BF648/IL6R-L (antibody, human IgG1)
heavy: not shown
light: B1 light
notes: IL6R-B3 with P238D; also called P238D
B4: IL6R-B3/IL6R-L (antibody, human IgG1)
heavy: not shown
light: B1 light
notes: IL6R-G1d with K439E (EU numbering)
B5: IL6R-BP116/IL6R-L (antibody, human IgG1)
heavy: B1 heavy with D235E, Y236L, D270H, G273P, A328T, K332A
light: B1 light
notes: Alteration introduced into IL6R-B3; also called P238D/K326T
B6: IL6R-BP118/IL6R-L (antibody, human IgG1)
heavy: B1 heavy with D235E, Y236L, D270H, G273P, A328S, K332A
light: B1 light
notes: Alteration introduced into IL6R-B3; also called P238D/K326S
B7: IL6R-BP110/IL6R-L (antibody, human IgG1)
heavy: B1 heavy with D235E, Y236L, D270N, G273P, A328K, K332A
light: B1 light
notes: Alteration introduced into IL6R-B3; also called P238D/H268N
B8: IL6R-2B169/IL6R-L (antibody, human IgG1)
heavy: B1 heavy with D235E, Y236L, D270H, G273P, V325I, A328K, K332A
light: B1 light
notes: Alteration introduced into IL6R-B3; also called P238D/V323I; 1L6R-2B169/IL6R-L
B9: IL6R-2B171/IL6R-L (antibody, human IgG1)
heavy: B1 heavy with D235E, Y236L, D270H, G273P, V325L, A328K, K332A
light: B1 light
notes: Alteration introduced into IL6R-B3; also called P238D/V323L
B10: IL6R-BP100/IL6R-L (antibody, human IgG1)
heavy: B1 heavy with D235E, Y236L, S269A, D270H, G273P, A328K, K332A
light: B1 light
notes: Alteration introduced into IL6R-B3; also called P238D/S267A
B11: IL6R-BP126/IL6R-L (antibody, human IgG1)
heavy: B1 heavy with D235E, Y236L, D270H, G273P, A328L, K332A
light: B1 light
notes: Alteration introduced into IL6R-B3; also called P238D/K326L
B12: IL6R-2B128/IL6R-L (antibody, human IgG1)
heavy: B1 heavy with D235E, Y236L, D270H, G273P, Y298D, A328K, K332A
light: B1 light
notes: Alteration introduced into IL6R-B3; also called P238D/Y296D
B13: IL6R-BP102/IL6R-L (antibody, human IgG1)
heavy: B1 heavy with D235E, Y236L, S269Q, D270H, G273P, A328K, K332A
light: B1 light
notes: Alteration introduced into IL6R-B3; also called P238D/S267Q
B14: IL6R-BP107/IL6R-L (antibody, human IgG1)
heavy: B1 heavy with D235E, Y236L, D270E, G273P, A328K, K332A
light: B1 light
notes: Alteration introduced into IL6R-B3; also called P238D/H268E
B15: IL6R-BP136/IL6R-L (antibody, human IgG1)
heavy: B1 heavy with D235E, Y236L, D270H, G273P, K332A
light: B1 light
notes: Alteration introduced into IL6R-B3; also called P238D/K326A
B16: IL6R-2B172/IL6R-L (antibody, human IgG1)
heavy: B1 heavy with D235E, Y236L, D270H, G273P, V325M, A328K, K332A
light: B1 light
notes: Alteration introduced into IL6R-B3; also called P238D/V323M
B17: IL6R-BP103/IL6R-L (antibody, human IgG1)
heavy: B1 heavy with D235E, Y236L, S269V, D270H, G273P, A328K, K332A
light: B1 light
notes: Alteration introduced into IL6R-B3; also called P238D/S267V
B18: IL6R-BP911/IL6R-L (antibody, human IgG1)
heavy: B1 heavy with D235E, Y236L, D270H, G273P, A328K
light: B1 light
notes: Alteration introduced into IL6R-B3; also called P238D/A330K
B19: IL6R-BP142/IL6R-L (antibody, human IgG1)
heavy: B1 heavy with D235E, Y236L, D270H, G273P, A328N, K332A
light: B1 light
notes: Alteration introduced into IL6R-B3; also called P238D/K326N
B20: IL6R-2B002/IL6R-L (antibody, human IgG1)
heavy: B1 heavy with Y236L, D270H, G273P, A328K, K332A
light: B1 light
notes: Alteration introduced into IL6R-B3; also called P238D/E233D
B21: IL6R-BP078/IL6R-L (antibody, human IgG1)
heavy: B1 heavy with D235E, Y236L, D270H, G273P, A328K, K332M
light: B1 light
notes: Alteration introduced into IL6R-B3; also called P238D/A330M

target: T1, FcγRIIb; assay: ratio of SPR KD values, parent IL6R-B3/IL6R-L
From the text: (§1) Furthermore, KD(IIaR)/KD(IIb) and KD(IIaH)/KD(IIb) in the table respectively represent the value obtained by dividing the KD value of each variant for FcγRIIaR by the KD value of each variant for FcγRIIb, and the value obtained by dividing the KD value of each variant for FcγRIIaH by the KD value of each variant for FcγRIIb. KD(IIb) of the parent polypeptide/KD(IIb) of the altered polypeptide refers to the value obtained by dividing the KD value of the parent polypeptide for FcγRIIb by the KD value of each variant for FcγRIIb.

| KD(IIb) of the parent polypeptide/KD(IIb) of altered polypeptide | Binder |
| --- | --- |
| 15.7 fold | B1 |
| 3.7 fold | B2 |

Target: T2, FcγRIIa type R
Assay: SPR (Biacore), method of Example 14
From the text: as §1

| Kd | Binder |
| --- | --- |
| 19 µM | B2 |

target: T7, FcγRIIIa type V (human, UniProt P08637 17-208, limits assumed); assay: SPR (Biacore), method of Example 14
T7 construct: also called FcγRIIIaV; FcγRIIIa(V)
T7 sequence (P08637 17-208 F176V limits assumed): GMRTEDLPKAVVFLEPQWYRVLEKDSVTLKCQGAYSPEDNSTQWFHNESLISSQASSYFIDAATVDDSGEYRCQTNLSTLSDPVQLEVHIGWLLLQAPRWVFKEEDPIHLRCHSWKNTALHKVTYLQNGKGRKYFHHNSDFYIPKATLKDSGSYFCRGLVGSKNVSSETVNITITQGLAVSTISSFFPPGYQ
From the text: as §1

| Kd | Binder |
| --- | --- |
| 44 µM | B1 |
| 65 µM | B2 |

target: T3, FcγRIIa type H; assay: SPR (Biacore), method of Example 14
From the text: as §1

| Kd | Binder |
| --- | --- |
| 20 µM | B1 |
| 29 µM | B2 |

target: T8, FcγRIa (human, UniProt P12314 16-292, limits assumed); assay: SPR (Biacore), method of Example 14
T8 construct: also called CD64
T8 sequence (P12314 16-292 limits assumed): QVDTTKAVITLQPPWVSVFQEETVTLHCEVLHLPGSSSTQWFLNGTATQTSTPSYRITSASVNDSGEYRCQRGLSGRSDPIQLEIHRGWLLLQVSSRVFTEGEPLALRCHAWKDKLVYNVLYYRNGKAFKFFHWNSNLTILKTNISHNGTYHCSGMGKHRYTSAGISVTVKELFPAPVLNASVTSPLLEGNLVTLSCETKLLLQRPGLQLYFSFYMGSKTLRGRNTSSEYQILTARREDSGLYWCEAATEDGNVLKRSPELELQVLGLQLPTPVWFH
From the text: as §1

| Kd | Binder |
| --- | --- |
| 0.011 µM | B1 |
| 0.022 µM | B2 |

target: T1, FcγRIIb; assay: SPR (Biacore), method of Example 14
From the text: as §1

| Kd | Binder |
| --- | --- |
| 0.2 µM | B1 |
| 0.84 µM | B2 |

target: T4, human FcγRIIb; assay: SPR (Biacore), binding amount relative to IL6R-BF648/IL6R-L = 100

| relative binding | Binder |
| --- | --- |
| 100 | B3 |
| 58 | B4 |
| 108 | B5 |
| 104 | B6 |
| 101 | B7 |
| 104 | B8 |
| 113 | B9 |
| 110 | B10 |
| 103 | B11 |
| 103 | B12 |
| 106 | B13 |
| 118 | B14 |
| 119 | B15 |
| 132 | B16 |
| 107 | B17 |
| 119 | B18 |
| 106 | B19 |

target: T9, human FcγRIa (human, UniProt P12314 16-292, limits assumed); assay: as above
T9 construct: also called CD64
T9 sequence (P12314 16-292 limits assumed): as above

| relative binding | Binder |
| --- | --- |
| 100 | B3 |
| 145 | B4 |
| 110 | B5 |
| 101 | B6 |
| 105 | B7 |
| 73 | B8 |
| 116 | B9 |
| 121 | B10 |
| 113 | B11 |
| 95 | B12 |
| 104 | B13 |
| 123 | B14 |
| 118 | B20 |
| 117 | B15 |
| 140 | B16 |
| 56 | B17 |
| 52 | B18 |
| 98 | B19 |

target: T5, human FcγRIIa type H; assay: as above

| relative binding | Binder |
| --- | --- |
| 100 | B3 |
| 1600 | B4 |
| 110 | B5 |
| 128 | B6 |
| 127 | B7 |
| 83 | B8 |
| 115 | B9 |
| 128 | B10 |
| 132 | B11 |
| 37 | B12 |
| 66 | B13 |
| 147 | B20 |
| 103 | B15 |
| 179 | B16 |
| 89 | B21 |
| 69 | B17 |
| 108 | B18 |
| 97 | B19 |

target: T10, human FcγRIIIa type V (human, UniProt P08637 17-208, limits assumed); assay: as above
T10 construct: also called FcγRIIIaV; FcγRIIIa(V)
T10 sequence (P08637 other isoform, or with tags, fused parts or gaps limits assumed): as the sequence (P08637 17-208 F176V limits assumed) above, with A179S counted along it

| relative binding | Binder |
| --- | --- |
| 100 | B3 |
| 3260 | B4 |
| 114 | B5 |
| 144 | B6 |
| 127 | B7 |
| 94 | B8 |
| 122 | B9 |
| 138 | B10 |
| 96 | B12 |
| 86 | B13 |
| 129 | B14 |
| 147 | B20 |
| 144 | B16 |
| 91 | B21 |
| 77 | B17 |

Target: T6, human FcγRIIa type R
Assay: as above

| relative binding | Binder |
| --- | --- |
| 100 | B3 |
| 625 | B4 |
| 126 | B5 |
| 132 | B6 |
| 128 | B7 |
| 117 | B9 |
| 197 | B10 |
| 167 | B11 |
| 87 | B12 |
| 165 | B13 |
| 147 | B14 |
| 103 | B20 |
| 159 | B15 |
| 244 | B16 |
| 101 | B21 |
| 163 | B17 |
| 101 | B18 |
| 103 | B19 |
